From the supplement of paper PMC10201428
± gives the standard deviation of the averaged measurements.

What was measured:
[1] = tested on: VchCAST RNA-guided transposition machinery (E. coli BL21(DE3) host, lacZ target); test: relative integration efficiency (T-LR orientation) vs wild-type transposon end (log2 (normalized fold change)); transposon end mutated: left end; higher = more efficient transposition
Method in brief: (§1)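 A T7-driven effector plasmid encoding a CRISPR array, tniQ-cas8-cas7-cas6 and tnsA-tnsB-tnsC was co-transformed into E. coli BL21(DE3) together with a pUC57 mini-transposon donor holding barcoded pools of 1549 left-end or 1849 right-end variants. Transformants were plated with 0.1 mM IPTG at 37°C for 18 h. Illumina sequencing of PCR-amplified input plasmids and genomic integration junctions gave barcode abundances, and relative integration efficiency is their output/input fold change, normalised to reference barcodes and log-transformed.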

[2] = tested on: VchCAST RNA-guided transposition machinery (E. coli BL21(DE3) host, lacZ target); test: relative integration efficiency (T-RL orientation) vs wild-type transposon end (log2 (normalized fold change)); transposon end mutated: left end; higher = more efficient transposition
Method in brief: as §1

Sequence	relative integration efficiency (log2) [1]	relative integration efficiency (log2) [2]
AATGTTGTTGATGCAACCATAAAGTGATTAAATATAATTATTTATAATCAGCAACTTAACCACAAAACAACCATATATTGATTAGAGACAAAACAACCATAAGTTGATTAAAATGTGAATCGAGTATTTCAGCAAAACTACTGCAGTAAGAA	-1.1 ± 0.76	-2.17 ± 0.87
AATGTTGTTGATGCAACCATAAAGTGATATTTAATAATTATTTATAATCAGCAACTTAACCACAAAACAACCATATATTTCGCGAGACACCCCACCAACGCCTGGTCGCGGGGGTGTCCGATCTGATTTCAGCAAAACTACTGCAGTAAGAA	-4.98 ± 3.6	-6 ± 1.3
AATGTTGTTGATGCAACCATAAAGTGATATTTAATAATTATTTATAATCAGCAACTTAACCACAAAACCCAACGCGCGGTCGCGAGACACCCCACCAACGCCTGGTCGCGGGGGTGTCCGATCTGATTTCAGCAAAACTACTGCAGTAAGAA	-2.9 ± 0.65	-7.08 ± 1.4
AATGTTGTTGATGCACCCATAAATTGATATTGCATAATTATTTATAATCAGCAACTTAACCACAAAACACCCATAAATTGATATTGCACAAAAGTTGGTATTCAACTATAAAATGTGAATCGAGTATTTCAGCAAAACTACTGCAGTAAGAA	-2.41 ± 2	-4.32 ± 0.9
AATGTTGTTGATGCAACCATAAAGTGATATTTAATAATTATTTCGAACTAGTTAACTAGTACGCAAACAACCATATATTGATATCTCACAAAACAACCATAAGTTGATATTTTTGTGAATCGAGTATTTCAGCAAAACTACTGCAGTAAGAA	< -10	-4.69 ± 1.4
AATGTTGTTGATGCAACCATAAAGTGATATTTAATAATTATTTATAATCAGCAACTTACAACCATATATTGATATCTCACAAAACAACCATAAGTTGATATTTTTGTGAATCGAGTATTTCAGCAAAACTACTGCAGTAAGAAAGTTACTTC	-0.998 ± 0.78	-0.809 ± 0.49
AATGTTGTTGATGTAATTATCATTTTATGGTTGATAATTATTTATAATCAGCAACTTAACCACAAAATAATTATCATTTTATGGTTGACAAAATAATTATCATTTTATGGTTGTGTGAATCGAGTATTTCAGCAAAACTACTGCAGTAAGAA	< -10	< -10
AATGTTGTTGATGTAATTATCATTTTATGGTTGATAATTATTTATAATCAGCAACTTAACCACAAAACAACCATAAAATGATAATTATTTTGTCAACCATAAAATGATAATTATGTGAATCGAGTATTTCAGCAAAACTACTGCAGTAAGAA	< -10	-8.78 ± 0.35
AATGTTGTTGATGCACCCATAAATTGATATTGCATAATTATTTATAATCAGCAACTTAACCACAAAACAACCATAAGTTGATATTTTACAAAAGTTGGTATTCAACTATAAAATGTGAATCGAGTATTTCAGCAAAACTACTGCAGTAAGAA	-1.34 ± 1.4	-3.46 ± 1.6
AATGTTGTTGATGCAACCATAAAGTGATATTTAATAATTATTTATAATCAGCAACTTACAACCATATATTGATATCTCACAAAACAACCATAAGTTGATATTTTACCACAAAATGTGAATCGAGTATTTCAGCAAAACTACTGCAGTAAGAA	-1.12 ± 1.1	-1 ± 0.61
AATGTTGTTGATGCAACCATAAAGTGATATTTAATACAACCATAAAGTGATATTTAACTTAACCACACAACCATATATTGATATCTCACAAAACAACCATAAGTTGATATTTTTGTGAATCGAGTATTTCAGCAAAACTACTGCAGTAAGAA	-3.38 ± 1.9	-5.26 ± 0.97
AATGTTGTTGATGCAACCATAAAGTGATATTTAACAACCATAAAGTGATATTTAACTTAACCACAAACAACCATATATTGATATCTCACAAAACAACCATAAGTTGATATTTTTGTGAATCGAGTATTTCAGCAAAACTACTGCAGTAAGAA	1.37 ± 1.1	-2.56 ± 0.5
AATGTTGTTGATGCAACCATAAAGTGATATTTAATAATTATTTATAATCAGCAACTTAACCACAAAACAACCAGCGCGGTCGCGAGACACCCCACCAACGCCTGGTCGCGGGGGTGTCCGATCTGATTTCAGCAAAACTACTGCAGTAAGAA	-5.07 ± 2.1	-7.15 ± 1.6
AATGTTGTTGATGCAACCATAAAGTGATATTTAATAATTATTTATAATCAGCAACTTAACCACAAAACAACCATATATTGATATCTCACAACCATAAGTTGATATTTTTGTGAATCGAGTATTTCAGCAAAACTACTGCAGTAAGAAAGTTA	-1.81 ± 1.5	-3.63 ± 0.88
AATGTTGTTGATGCAACCATAAAGTGATATTTAATAATTATTTATAATCAGCAACTTAACCACAAAATGTGACAACCATATATTGATATCTCACAAAACAACCATAAGTTGATATTTTATCGAGTATTTCAGCAAAACTACTGCAGTAAGAA	-4.36 ± 1.1	-4.95 ± 0.52
AATGTTGTTGATGTAATTATCATTTTATGGTTGATAATTATTTATAATCAGCAACTTAACCACAAAACAACCATAAAATGATAATTAACAAAATAATTATCATTTTATGGTTGTGTGAATCGAGTATTTCAGCAAAACTACTGCAGTAAGAA	< -10	-7.72 ± 0.59
